In patent publication US20110065176A1 (PHARMABCINE, published 2011):

Target: T1, KDR (VEGFR-2) expressed on the cell surface (human, UniProt P35968 20-1356)
T1 construct: whole, on cells; also called endogenous human KDR; KDR of HUVEC cells
Experiment: FACS on HUVEC cells pretreated with 20 ng/ml VEGF, against IMC-1C11 IgG

T1 sequence (P35968 20-1356): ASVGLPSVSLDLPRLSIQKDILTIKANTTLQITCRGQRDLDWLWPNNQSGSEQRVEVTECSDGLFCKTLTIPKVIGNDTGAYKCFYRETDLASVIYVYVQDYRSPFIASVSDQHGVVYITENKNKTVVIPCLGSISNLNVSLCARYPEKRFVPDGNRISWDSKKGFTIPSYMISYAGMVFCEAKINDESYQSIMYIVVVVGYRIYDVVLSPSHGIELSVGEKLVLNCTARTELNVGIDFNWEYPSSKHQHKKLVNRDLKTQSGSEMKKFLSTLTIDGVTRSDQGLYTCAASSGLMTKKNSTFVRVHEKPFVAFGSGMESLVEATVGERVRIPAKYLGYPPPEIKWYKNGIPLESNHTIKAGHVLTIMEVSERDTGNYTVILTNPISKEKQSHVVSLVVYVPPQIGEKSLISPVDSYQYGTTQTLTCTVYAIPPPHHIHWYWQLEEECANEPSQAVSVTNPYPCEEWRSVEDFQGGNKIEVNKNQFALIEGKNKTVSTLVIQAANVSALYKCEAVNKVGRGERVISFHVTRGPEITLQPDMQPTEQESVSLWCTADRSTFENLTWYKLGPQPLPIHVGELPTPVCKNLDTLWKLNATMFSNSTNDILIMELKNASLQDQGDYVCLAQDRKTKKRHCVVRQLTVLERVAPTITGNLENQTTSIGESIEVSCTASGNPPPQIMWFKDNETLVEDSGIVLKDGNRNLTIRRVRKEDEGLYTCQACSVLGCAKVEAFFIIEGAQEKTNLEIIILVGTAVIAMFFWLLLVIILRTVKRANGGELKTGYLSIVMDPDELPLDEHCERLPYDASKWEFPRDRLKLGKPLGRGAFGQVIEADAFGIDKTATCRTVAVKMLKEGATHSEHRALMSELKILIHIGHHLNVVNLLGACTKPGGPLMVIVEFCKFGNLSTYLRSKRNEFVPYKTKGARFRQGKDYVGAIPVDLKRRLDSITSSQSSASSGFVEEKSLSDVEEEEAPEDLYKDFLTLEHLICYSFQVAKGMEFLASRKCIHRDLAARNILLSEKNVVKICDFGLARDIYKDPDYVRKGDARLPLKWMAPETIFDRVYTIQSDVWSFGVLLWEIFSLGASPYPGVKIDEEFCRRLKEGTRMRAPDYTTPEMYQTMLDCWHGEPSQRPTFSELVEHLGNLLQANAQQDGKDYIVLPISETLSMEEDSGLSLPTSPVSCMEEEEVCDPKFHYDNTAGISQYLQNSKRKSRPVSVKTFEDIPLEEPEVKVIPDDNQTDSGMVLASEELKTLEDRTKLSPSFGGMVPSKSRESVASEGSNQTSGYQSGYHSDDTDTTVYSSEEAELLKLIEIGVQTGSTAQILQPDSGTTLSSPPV

B1: 6A6 IgG (antibody, V domains shown)
VH: QMQLVQSGAEVKKPGASVKLSCKASGYTFSSYWMHWVRQAPGQRLEWMGEINPGNGHTNYNEKFKSRVTITVDKSASTAYMELSSLRSEDTAVYYCAKIWGPSLTSPFDYWGQGTLVTVSS
VL: SNFMLTQPPSVSVSPGKTARITCRGDNLGDVNVHWYQQRPGQAPVLVMYYDADRPSGIPERFSGSNSGNTATLTISGVEAGDEADYYCQVWDRTSEYVFGTGTKVTVLG
notes: Whole human IgG expressed in CHO DG44 cells; also called 6A6 antibody; anti-KDR 6A6 IgG
fold higher KDR neutralizing ability than IMC-1C11 IgG: ~2 fold
